Patent publication US7494645B2, “Lipid phosphate phosphatases and uses thereof for treating neuronal diseases” (Charite Universitaetsmedzin-Berlin, priority 2002, dated 2009)
Entries after “also recorded” stand apart in the source; their conditions may differ.

Key:
[1] = system: entorhinal explants; test: LPA induced neurite retraction in entorhinal explants; assay type: cell-based, rat; details: 100 nmol/l LPA, 10 min
Description: Entorhinal explants from E16 and P0 rat pups were obtained from timed-pregnant Wistar rats and were cultivated as described (N. E. Savaskan (2000) Eur. I. Neurosci 12:1024-1032). In brief, entorhinal cortex was carefully dissected from the hippocampal anlage and the meninges were removed. Explants were gently transferred with a fire-polished Pasteur pipette into 12-well plates and cultivated on baked glass cover slides coated with laminin and poly-L-lysin (25 μg/ml and 10 μg/ml, respectively) in culture medium containing selenium-defined fetal bovine serum [5%] (N. E. Savaskan et al (2000) FASEB J. e-published) (Neurobasal medium plus 25 μg/ml Penicillin/Streptomycin; B-27 supplement). After 24 h, culture medium was exchanged and cultivation was further performed in serum-free Neurobasalmedium for 20 h. Serum-starved explants were treated with 100 nmol/l oleoyl-LPA (5 mmol/l stock solution in ultra-filtrated water) for 10 min or with vehicle (0.9% NaCl) and then fixed in 4% paraformaldehyde for 20 min. For F-actin staining, fixed tissues were incubated with TRITC-phalloidin (0.1 μg/ml, Sigma, Germany) for 40 min, followed by incubation with HOECHST 33258 dye (1:20,000, Sigma, Germany) for 5 min at room temperature. […] Images were taken with a CCD camera on an Olympus BX-50 microscope and quantification was performed using the Meta Morph analysis system (Universal Imaging, PA). […]

[2] = system: N1E-115 mouse neuroblastoma cells; test: LPA induced neurite retraction and protection in transfected N1E-115 cells; assay type: cell-based
Description: The rat PRG-1 full length clone was amplified by Marathon PCR (Clontech, USA) from adult rat hippocampus RNA (SEQ ID No. 17). For transfection studies, the full length PRG-1 coding sequence was fused to EGFP (pEGFP-N1 vector Clontech, USA). The PRG-1^His/Lys exchange mutant at the catalytic histidine (His-252) was introduced in the same protein fusion vector by site specific mutagenesis (CAT to AAG).
(§1) N1E-115 mouse neuroblastoma cells (ATCC: CRL-2263) were routinely grown in DMEM medium supplemented with selenium-defined fetal bovine serum (10%). The cells were seeded on baked glass cover slides at a density of 10,000 cells/cm^2. The next day, cells were transfected with the cationic lipids procedure (FuGene6, Roche, Germany) and cultivated for 24 h. Serum-starvation was performed for 20 h in DMEM medium, followed by treatment with 10 μmol/l oleoyl-LPA or vehicle (0.9% sodium chloride) (K. Jalink et al (1993) Cell Growth Differ. 4:247-255). After 10 min, cells were fixed in 4% paraformaldehyde for 20 min at room temperature and further analysis processed as described above. Images were taken with a CCD camera on an Olympus BX-50 microscope. Quantification was performed with the Meta Morph analysis system (University Imaging, PA). For statistical analysis Statview II was used (Abacus, USA). The effects of transfection on cell viability were analysed by MTT assay and propidium iodide staining (Savaskan N. E. et al. (2002) FASEB J. 17:112-114).

[3] = system: PRG-3 mRNA; test: PRG-3 mRNA in situ hybridization after kainate administration in vivo; parameters: species or system rat; details: 10 mg/kg i.p.
Description: For hybridization, we used two antisense oligonucleotides which both gave essentially the same hybridization signal: 5′-GCAGAGGTCTGAATTCTAGTGTCTATCGTTATAGTTCCTTAACAGTGTGGG-3′ (SEQ ID NO. 37) and 5′-CATCCTTCTGTAGTAGCTTTCTGCCTCTGCCTCCACTTCTCTCT-3′ (SEQ ID NO. 38) complementary to rat PRG-3 sequence (SEQ ID NO. 23). The oligonucleotide was synthesized by Metabion (Munich, Germany). The specificity was confirmed by a BLAST GenBank search to rule out cross-hybridization with other genes. We used the protocol as previously described (Brauer et al., 2001, supra).
Six rats, weighing 200-300 g, were weight-paired (±10 g per pair). These animals received a single i.p. injection of kainic acid (10 mg/kg bodyweight; from Ocean Products Int., Canada) freshly dissolved in 0.9% saline. Behavior was then observed constantly for 24 hr via video time lapse recordings. […] Severity of seizures was scored for 4 h after kainate injection using the classification of Zhang et al. […] Nissl-positive undamaged neurons were counted in five coronal brain sections per animal (sections were chosen by unbiased sampling), and the mean number of cells per section were determined such that the value obtained for each rat represents an average total number of neurons counted per section (250 μm by 250 μm square in the middle of the CA1 region). […]

[4] = system: N1E-115 cells; test: Ecto-phosphatase activity (extracellular LPA degradation) in transfected N1E-115 cells; assay type: cell-based, mouse
Description: The assay procedures used were adapted from those described in Imai et al. (2000) J. Clin. Endocrinol. Metab 85:3370-3375 and Hooks S. B. et al. (2001) J. Biol. Chem. 276:4611-4621. Briefly, transfected cells were harvested after serum-free cultivation for 20 h by scraping in lysis buffer (containing 20 mmol/l HEPES pH 7.4, 1 mmol/l NaHCO3, 500 μmol/l DTT, 1 mmol/l EGTA) and sonicated with two strokes (Bandolin GM 70, Germany). After centrifugation at 800×g, the supernatant was diluted in lysis buffer and centrifuged at 100,000×g for 1 h. Alternatively, the supernatant was topped on a sucrose step gradient (50% and 5%) and centrifuged at 100,000×g for 1 h (Savaskan, N. E. et al. (2000) Eur. J. Neurosci. 12:1024-1032. The resulting pellet and interphase, respectively, were re-homogenized and centrifuged again at 100,000×g for 1 h. The crude membrane pellet was re-suspended in reaction buffer (50 mmol/l HEPES pH 7,5; 1 mmol/l EGTA) and protein concentration was determined spectroscopically by Bradford protein assay (Amersham, Germany). Assessment of LPA metabolism was performed with exogenous ^3H-oleoeyl-LPA (Perkin Elmer, Germany) measuring ^3H-oleoeyl-glycerol production. […] All fractions of dried plates were scintillation counted and compared with authentic standards (LPA, 1-monoolein, 1,2-monoolein, oleic acid). […]

[5] = system: N1E-115 cells; test: Cell viability of N1E-115 cells after transfection (MTT assay, propidium iodide staining); assay type: cell-based, mouse; details: 48-72 h after transfection
Description: as §1

[6] = system: hyperphosphorylated tau protein; test: Tau hyperphosphorylation in neurons overexpressing PRG-1 (cell culture model); assay type: cell-based
Description: Alzheimer's disease is characterized by intracellular neurofibrillary tangle formation formed by tau-based paired helical filaments (PHF) and by extracellular beta-amyloid plaques. The degree of Alzheimer dementia correlates well with the severity of PHF occurrence. These PHF are formed by hyperphosphorylated tau formation. […] To gain insights into the functional role of PRG-1 in Alzheimer's pathology we used an established cell culture model.

1- or 2-oleoyl-lysophosphatidic acid [LPA]
neurite retraction in embryonic entorhinal explants ([1]; E16 explants (no PRG-1 expression), n=20): rapid neurite retraction | neurite retraction in postnatal entorhinal explants ([1]; P0 explants (express PRG-1), n=22): did not differ significantly from vehicle treated control cultures | LPA-induced growth cone collapse of N1E-115 cells ([2]; eGFP-only transfected cells, 10 μmol/l LPA, 10 min): uniformly sensitive

C=C(C)[C@H]1CN[C@H](C(=O)O)[C@H]1CC(=O)O [kainic acid]
PRG-3 mRNA expression in hippocampus ([3]; five days after kainic acid application): comparable levels to the adult non-treated controls | PRG-3 mRNA expression in hippocampus ([3]; six hours after kainic acid application): rapid PRG-3 repression

B1: PRG-1: plasticity-related gene 1 protein, lipid phosphate phosphatase; rat full length clone expressed by transfection (protein)
chain: MQRAGSSGARGECDISGTGRLRLEQAARLGGRAVHTSPTGGLGARQVAGMSAKERPKGKVIKDSVTLLPCFYFVELPILASSVVSLYFLELTDVFKPVHSGFSCYDRSLSMPYIEPTQEAIPFLMLLSLAFAGPAITIMVGEGILYCCLSKRRNGAGLEPNINAGGCNFNSFLRRAVRFVGVHVVGLCSTALITDIIQLATGYQAPYFLTVCKPMYTSLEGSCKENSYIVEEICSGSDLTVINNGKKSFPSQHATLAAFAAVYVSMYFNSTLTDSSKLLKPLLVFTFIICGIICGLTRITQYKNHPVDVYCGFLIGGGIALYLGLYAVGNFLPSEDSMLQHRDALRSLTDLNQDPSRVLSAKNGSSGDGIAHTEGILNRNHRDASSLTNLKRANADVEIITPRSPMGKESMVTFSNTLPRANTPSVEDPVRRNASIHASMDSARSKQLLTQWKSKNESRKMSLQVMDSEPEGQSPPRSIEMRSSSEPSRVGVNGDHHVPGNQYLKIQPGTVPGCNNSMPAGPRVSIQSRPGSSQLVHIPEETQENISTSPKSSSARAKWLKAAEKTVACNRGNNQPRIMQVIAMSKQQGVLQSSPKNAEGSTVTCTGSIRYKTLTDHEPSGIVRVEAHPENNRPIIQIPSSTEGEGSGSWKWKAPEKSSLRQTYELNDLNRDSESCESLKDSFGSGDRKRKHIDSNEHHHHGITTIRVTPVEGSEIGSETLSVSSSRDSTLRRKGNIILIPERSNSPENTRNIFYKGTSPTRPYKD
increase of LPA needed to overcome resistance against growth cone collapse ([2]; PRG-1 overexpressing N1E-115 cells, LPA dose response): 10 fold | protection against LPA-induced growth cone collapse / retraction of processes ([2]; transfected N1E-115 cells, 10 μmol/l LPA): resistance of N1E-115 cells to LPA-induced growth cone collapse; also recorded: did not prevent CPA-induced retraction of processes | LPA-induced actin-polymerization ([2]; transfected N1E-115 cells, phalloidin staining): prevented LPA-induced actin-polymerization | increase in ecto-phosphatase activity compared to eGFP transfection alone [4]: 5 fold | cell viability [5]: unaffected | hyperphosphorylated tau and PHF formation ([6]; PRG-1 overexpression, tau hyperphosphorylation induced with okadaic acid or LPA): significantly decrease | hyperphosphorylated tau protein ([6]; neurons overexpressing PRG-1 vs control transfected cells): significant reduction
